Experimental data from patent publication US20210139589A1 (APEXIGEN, published 2021).
Where a chain is given by its changes, count along the chain named. Values belong to the binder of their own block, whether it stands above or below them.

Key:
[1] = molecular target: T1, human VISTA expressed on the cell surface (HEK293 cells transfected with human VISTA cDNA); native on human … (human, UniProt Q9H7M9 33-311); test: method not stated; table follows flow cytometry on HEK293 cells transfected with human VISTA
T1 construct: whole, on cells; also called PD-1H
T1 sequence (looked up): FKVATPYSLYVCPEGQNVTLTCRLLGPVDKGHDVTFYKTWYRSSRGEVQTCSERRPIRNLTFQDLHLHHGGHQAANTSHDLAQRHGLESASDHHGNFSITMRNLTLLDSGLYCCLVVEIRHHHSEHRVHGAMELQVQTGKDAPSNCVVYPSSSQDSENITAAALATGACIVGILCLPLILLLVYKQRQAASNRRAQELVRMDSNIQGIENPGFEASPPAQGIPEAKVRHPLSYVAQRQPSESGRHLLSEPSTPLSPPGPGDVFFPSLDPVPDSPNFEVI

[2] = molecular target: T1, human VISTA expressed on the cell …; test: flow cytometry on HEK293 cells transfected with human VISTA, detection with anti-human Ig; EC50 table under the graph
Protocol: In order to examine the ability of the 7 humanized anti-VISTA antibodies to bind to cell surface expressed VISTA, HEK293 cells were transfected with human VISTA cDNA for 24 hours using Fugene 6 transfection reagent. Cells were harvested by trypsinization, re-suspended in FACS buffer and plated in 96-well plates. Cells were incubated with the concentration of anti-VISTA antibodies indicated in FIG. 5 for 30 minutes on ice. Antibodies were detected using anti-human Ig antibodies and binding was assessed on the MACSQuant flow cytometer (FIG. 5).

B1: humanized anti-VISTA antibody 2D12-HZD3 (antibody, human IgG1, kappa, V domains shown)
VH: EVQLVESGGGLVQPGGSLRLSCAASGIDLSSYAMGWVRQAPGKGLEWVGIISSSGSAFYASWAKGRFTISRDNSKNTLYLQMNSLRAEDTAVYYCARHYAGYTTPYYFNFWGQGTLVTVSS
VL: AIQMTQSPSSLSASVGDRVTITCQASENIYSNLAWYQQKPGKAPKVLIYAASDLASGVPSRFSGSGSGTDFTLTISSLQPEDFATYYCQQGFSSSNVDNAFGGGTKVEIKR
notes: kappa light chain
Kd [1]: 1.31 nM | EC50 [2]: 1.75 nM

B3: humanized anti-VISTA antibody 29G7-HZD2 (antibody, human IgG1, kappa, V domains shown)
VH: EVQLVESGGGLVQPGGSLRLSCAASGFSLSSYAMGWVRQAPGKGLEWVGIIIVSGNIYYASWAKGRFTISRDNSKNTLYLQMNSLRAEDTAVYYCARGDGYTYGLWGQGTLVTVSS
VL: DIQMTQSPSTLSASVGDRVTITCQASQSVYSRYLAWYQQKPGKAPKLLIYSASTLASGVPSRFSGSGSGTEFTLTISSLQPDDFATYYCQGTFYIPDYIDGFGGGTKVEIKR
notes: kappa light chain
Kd [1]: 0.281 nM | EC50 [2]: 0.463 nM

B5: humanized anti-VISTA antibody 14D8-HZD2 (antibody, human IgG1, kappa, V domains shown)
VH: EVQLVESGGGLVQPGGSLRLSCAASGFDLSSAYYMCWVRQAPGKGLEWVGCIATGSGSTYYASWAKGRFTISRDNSKNTLYLQMNSLRAEDTAVYYCARAPYYSYDGYDYALNLWGQGTLVTVSS
VL: DIQMTQSPSSVSASVGDRVTITCQASEDIVTYLAWYQQKPGKAPKLLIYAASTLASGVPSRFSGSGSGTDFTLTISSLQPEDFATYYCQQTYNYADTDNAFGGGTKVEIKR
notes: kappa light chain
Kd [1]: 2.2 nM | EC50 [2]: 2.83 nM

B6: humanized anti-VISTA antibody 14F1-HZD2 (antibody, human IgG1, kappa, V domains shown)
VH: EVQLLESGGGLVQPGGSLRLSCAASGFSFSSSYYMCWVRQAPGKGLEWVACFYAGFSGSTYYASWAKGRFTISRDNSKNTLYLQMNSLRAEDTAVYYCAKGASTYGYTGYDYAGDYFILWQPGTLVTVSS
VL: DIQMTQSPSSVSASVGDRVTITCQASQNIYSNLAWYQQKPGKAPKLLIYAASNLASGVPSRFSGSGSGTDFTLTISSLQPEDFATYYCQSAYYSSSADSYNAFGGGTKVEIKR
notes: kappa light chain
Kd [1]: 2.19 nM | EC50 [2]: 2.95 nM

Continued by falling Kd [1], values first:

Kd [1]: 1.35 nM | EC50 [2]: 1.84 nM
B7: humanized anti-VISTA antibody 41A11-HZD2 (antibody, human IgG1, kappa, V domains shown)
VH: B6 VH with A50G, S59G, S103N, I118T, Q121G, P122Q
VL: DIQMTQSPSTLSASVGDRVTITCQASQNIGSNLAWYQQKPGKAPKLLIYAASNLESGVPSRFSGSGSGTEFTLTISSLQPDDFATYYCQSAYYSSVDSYNTFGGGTKVEIKR
notes: kappa light chain

Kd [1]: 0.295 nM | EC50 [2]: 0.477 nM
B4: humanized anti-VISTA antibody 29G7-HZD4 (antibody, human IgG1, kappa, V domains shown)
VH: B3 VH
VL: EIVMTQSPATLSLSPGERATLSCQASQSVYSRYLAWYQQKPGQAPRLLIYSASTLASGIPARFSGSGSGTDFTLTISSLQPEDFAVYYCQGTFYIPDYIDGFGGGTKVEIKR
notes: kappa light chain

Kd [1]: 0.293 nM | EC50 [2]: 0.483 nM
B2: humanized anti-VISTA antibody 3A5-HZD (antibody, human IgG1, kappa, V domains shown)
VH: EVQLVESGGGLVQPGGSLRLSCAASGFSLSSENWICWVRQAPGKGLEWVGCICGANGGSAYHANWVNGRFTISRDNSKNTLYLQMNSLRAEDTAVYYCARAAGVSNAYYFDLWGQGTLVTVSS
VL: DIQMTQSPSSVSASVGDRVTITCQASQYIYINLAWYQQKPGKAPKLLIYDASDLASGVPSRFSGSGSGTDFTLTISSLQPEDFATYYCQCTYGGSTYGNAFGGGTKVEIKR
notes: kappa light chain
